Literature values in PMC2847435.

Assays:
[1] = target: PDZ ligand peptide VKESLV
[2] = target: PDZ ligand peptide VKQSLL
[3] = target: Src pY527 tail pY527 tail (UniProt P12931)

Row | Kd [1] [µM] | Kd [2] [µM] | Kd [3] [µM] | Substance
1 | 8 | 100 |  | syntrophin PDZ domain PDZ (from UniProt Q61234)
2 |  |  | 29 | Src SH2 domain SH2 (from UniProt P12931)
